For one substance, IC50, inhibition of FXa generation (Assay 5; 10 pM lipidated TF, 100 pM FVIIa, 50 nM FX), IC50, inhibition of FVIIa/sTF amidolytic activity (Assay 4; 10 nM sTF, 10 nM FVIIa, substrate S2288) and IC50, TF-dependent clotting assay (Assay 7) results are on record in patent US20040001830A1.

Assay in all cases: cell-based or functional assay
The target of one experiment is Lipidated TF (human) (UniProt P13726).
In experiment [1] the target is Recombinant human soluble TF1-209 (human) (UniProt P13726).
For experiment [2], the target named is Thromboplastin from human (TF source of the TF-dependent clotting assay) (human) (UniProt P13726).

With “FFR-rFVIIa: FVIIa blocked in the active site with D-Phe-L-Phe-L-Arg-chloromethyl ketone (from UniProt P08709 61-212) (enzyme)”, the IC50, inhibition of FXa generation (Assay 5; 10 pM lipidated TF, 100 pM FVIIa, 50 nM FX) in the experiment with Lipidated TF (human) was determined as 51 pM. The IC50, inhibition of FVIIa/sTF amidolytic activity (Assay 4; 10 nM sTF, 10 nM FVIIa, substrate S2288) in experiment [1] is 7 nM. Besides, the IC50, TF-dependent clotting assay (Assay 7) in experiment [2] amounted to 0.0044 nM.
